# *1 amine or outer side, *2 acyl side, *3 side chain or, on linkers, in order; H or OH if unused. [ ]: non-standard residue; d: D form. TyrEtNAc = L-tyrosine O-ethyl acetamide, (S)-3-(4-(2-acetamidoethoxy)phenyl)-2-aminopropanoic acid, CC(=O)NCCOc1ccc(C[C@H](N[*:1])C(=O)[*:2])cc1; PyrimAla4AcPip = (S)-3-(2-(4-acetylpiperazin-1-yl)pyrimidin-5-yl)-2-aminopropanoic acid, CC(=O)N1CCN(c2ncc(C[C@H](N[*:1])C(=O)[*:2])cn2)CC1; 3AzaTyrEtNAc = (S)-3-(6-(2-acetamidoethoxy)pyridin-3-yl)-2-aminopropanoic acid, CC(=O)NCCOc1ccc(C[C@H](N[*:1])C(=O)[*:2])cn1; Pro(trans-4-NH2) = O=C([C@@H]1C[C@@H](N[*:3])CN1[*:1])[*:2]; Trp(βS-Me,4-F) = C[C@@H](c1c[nH]c2cccc(F)c12)[C@H](N)C(=O)O; Bip(4'-COOH) = N[C@@H](Cc1ccc(-c2ccc(C(=O)O)cc2)cc1)C(=O)O; 1Nal(3S-Me) = C[C@@H](c1cccc2ccccc12)[C@H](N)C(=O)O; Ala(indazol-1-yl) = N[C@@H](Cn1ncc2ccccc21)C(=O)O; Ala(indolin-1-yl) = N[C@@H](CN1CCc2ccccc21)C(=O)O; Phe(4-COOH) = N[C@@H](Cc1ccc(C(=O)O)cc1)C(=O)O; h3Pal(5-CN) = N#Cc1cncc(CC[C@H](N)C(=O)O)c1; 1Nal = N[C@@H](Cc1cccc2ccccc12)C(=O)O; hTyr = N[C@@H](CCc1ccc(O)cc1)C(=O)O; dDab = NCC[C@@H](N)C(=O)O; Orn = NCCC[C@H](N)C(=O)O; dNMeA = CN[C@H](C)C(=O)O; Dab = NCC[C@H](N)C(=O)O; Nva = CCC[C@H](N)C(=O)O; Dap = NC[C@H](N)C(=O)O; Aib = CC(C)(N)C(=O)O
# Target: Recombinant human IL-1β (BioLegend 579404) (human, UniProt P01584 117-269)
# Test: cell-based or functional assay
row,Binder,MRC5 IC50 [pM]
1,"cyclo([3AzaTyrEtNAc]W[Phe(4-COOH)]G[Pro(trans-4-NH2)][Trp(βS-Me,4-F)]D[dNMeA]G[Bip(4'-COOH)]KL[dA][hTyr]) (SMILES CC(=O)NCCOc1ccc(C[C@@H]2NC(=O)[C@H](CCc3ccc(O)cc3)NC(=O)[C@@H](C)NC(=O)[C@H](CC(C)C)NC(=O)[C@H](CCCCN)NC(=O)[C@H](Cc3ccc(-c4ccc(C(=O)O)cc4)cc3)NC(=O)CNC(=O)[C@@H](C)N(C)C(=O)[C@H](CC(=O)O)NC(=O)[C@H]([C@@H](C)c3c[nH]c4cccc(F)c34)NC(=O)[C@@H]3C[C@@H](N)CN3C(=O)CNC(=O)[C@H](Cc3ccc(C(=O)O)cc3)NC(=O)[C@H](Cc3c[nH]c4ccccc34)NC2=O)cn1) [SEQ ID NO: 9]",118
2,cyclo([TyrEtNAc]W[Phe(4-COOH)]G[Pro(trans-4-NH2)][1Nal(3S-Me)]D[dNMeA]G[Bip(4'-COOH)][1Nal][Dab][Aib]G) (SMILES CC(=O)NCCOc1ccc(C[C@@H]2NC(=O)CNC(=O)C(C)(C)NC(=O)[C@H](CCN)NC(=O)[C@H](Cc3cccc4ccccc34)NC(=O)[C@H](Cc3ccc(-c4ccc(C(=O)O)cc4)cc3)NC(=O)CNC(=O)[C@@H](C)N(C)C(=O)[C@H](CC(=O)O)NC(=O)[C@H]([C@@H](C)c3cccc4ccccc34)NC(=O)[C@@H]3C[C@@H](N)CN3C(=O)CNC(=O)[C@H](Cc3ccc(C(=O)O)cc3)NC(=O)[C@H](Cc3c[nH]c4ccccc34)NC2=O)cc1) [SEQ ID NO: 92],457
3,cyclo([TyrEtNAc]W[Phe(4-COOH)]G[Pro(trans-4-NH2)][1Nal(3S-Me)]D[dNMeA]G[Bip(4'-COOH)][Ala(indolin-1-yl)]G[dDab][h3Pal(5-CN)]) (SMILES CC(=O)NCCOc1ccc(C[C@@H]2NC(=O)[C@H](CCc3cncc(C#N)c3)NC(=O)[C@@H](CCN)NC(=O)CNC(=O)[C@H](CN3CCc4ccccc43)NC(=O)[C@H](Cc3ccc(-c4ccc(C(=O)O)cc4)cc3)NC(=O)CNC(=O)[C@@H](C)N(C)C(=O)[C@H](CC(=O)O)NC(=O)[C@H]([C@@H](C)c3cccc4ccccc34)NC(=O)[C@@H]3C[C@@H](N)CN3C(=O)CNC(=O)[C@H](Cc3ccc(C(=O)O)cc3)NC(=O)[C@H](Cc3c[nH]c4ccccc34)NC2=O)cc1) [SEQ ID NO: 91],23.4
4,cyclo([TyrEtNAc]W[Phe(4-COOH)]G[Pro(trans-4-NH2)][1Nal(3S-Me)]A[dNMeA]G[Bip(4'-COOH)]W[Dap][dA][hTyr]) (SMILES CC(=O)NCCOc1ccc(C[C@@H]2NC(=O)[C@H](CCc3ccc(O)cc3)NC(=O)[C@@H](C)NC(=O)[C@H](CN)NC(=O)[C@H](Cc3c[nH]c4ccccc34)NC(=O)[C@H](Cc3ccc(-c4ccc(C(=O)O)cc4)cc3)NC(=O)CNC(=O)[C@@H](C)N(C)C(=O)[C@H](C)NC(=O)[C@H]([C@@H](C)c3cccc4ccccc34)NC(=O)[C@@H]3C[C@@H](N)CN3C(=O)CNC(=O)[C@H](Cc3ccc(C(=O)O)cc3)NC(=O)[C@H](Cc3c[nH]c4ccccc34)NC2=O)cc1) [SEQ ID NO: 89],271
5,cyclo([PyrimAla4AcPip]W[Phe(4-COOH)]G[Pro(trans-4-NH2)][1Nal(3S-Me)]D[dNMeA]G[Bip(4'-COOH)]W[Dap][dA][hTyr]) (SMILES CC(=O)N1CCN(c2ncc(C[C@@H]3NC(=O)[C@H](CCc4ccc(O)cc4)NC(=O)[C@@H](C)NC(=O)[C@H](CN)NC(=O)[C@H](Cc4c[nH]c5ccccc45)NC(=O)[C@H](Cc4ccc(-c5ccc(C(=O)O)cc5)cc4)NC(=O)CNC(=O)[C@@H](C)N(C)C(=O)[C@H](CC(=O)O)NC(=O)[C@H]([C@@H](C)c4cccc5ccccc45)NC(=O)[C@@H]4C[C@@H](N)CN4C(=O)CNC(=O)[C@H](Cc4ccc(C(=O)O)cc4)NC(=O)[C@H](Cc4c[nH]c5ccccc45)NC3=O)cn2)CC1) [SEQ ID NO: 88],94.5
6,cyclo([TyrEtNAc]W[Phe(4-COOH)]G[Pro(trans-4-NH2)][1Nal(3S-Me)]D[dNMeA]G[Bip(4'-COOH)][Ala(indazol-1-yl)]G[dDab][h3Pal(5-CN)]) (SMILES CC(=O)NCCOc1ccc(C[C@@H]2NC(=O)[C@H](CCc3cncc(C#N)c3)NC(=O)[C@@H](CCN)NC(=O)CNC(=O)[C@H](Cn3ncc4ccccc43)NC(=O)[C@H](Cc3ccc(-c4ccc(C(=O)O)cc4)cc3)NC(=O)CNC(=O)[C@@H](C)N(C)C(=O)[C@H](CC(=O)O)NC(=O)[C@H]([C@@H](C)c3cccc4ccccc34)NC(=O)[C@@H]3C[C@@H](N)CN3C(=O)CNC(=O)[C@H](Cc3ccc(C(=O)O)cc3)NC(=O)[C@H](Cc3c[nH]c4ccccc34)NC2=O)cc1) [SEQ ID NO: 90],50.7

# Other lines, results leading:
row,MRC5 IC50 [pM],Binder
1,464,cyclo([TyrEtNAc]W[Phe(4-COOH)]G[Pro(trans-4-NH2)][1Nal(3S-Me)]D[dNMeA]G[Bip(4'-COOH)][1Nal]L[Aib][hTyr]) (SMILES CC(=O)NCCOc1ccc(C[C@@H]2NC(=O)[C@H](CCc3ccc(O)cc3)NC(=O)C(C)(C)NC(=O)[C@H](CC(C)C)NC(=O)[C@H](Cc3cccc4ccccc34)NC(=O)[C@H](Cc3ccc(-c4ccc(C(=O)O)cc4)cc3)NC(=O)CNC(=O)[C@@H](C)N(C)C(=O)[C@H](CC(=O)O)NC(=O)[C@H]([C@@H](C)c3cccc4ccccc34)NC(=O)[C@@H]3C[C@@H](N)CN3C(=O)CNC(=O)[C@H](Cc3ccc(C(=O)O)cc3)NC(=O)[C@H](Cc3c[nH]c4ccccc34)NC2=O)cc1) [SEQ ID NO: 96]
2,256,cyclo([TyrEtNAc]W[Phe(4-COOH)]G[Pro(trans-4-NH2)][1Nal(3S-Me)]D[dNMeA]G[Bip(4'-COOH)][1Nal][Orn][Aib][hTyr]) (SMILES CC(=O)NCCOc1ccc(C[C@@H]2NC(=O)[C@H](CCc3ccc(O)cc3)NC(=O)C(C)(C)NC(=O)[C@H](CCCN)NC(=O)[C@H](Cc3cccc4ccccc34)NC(=O)[C@H](Cc3ccc(-c4ccc(C(=O)O)cc4)cc3)NC(=O)CNC(=O)[C@@H](C)N(C)C(=O)[C@H](CC(=O)O)NC(=O)[C@H]([C@@H](C)c3cccc4ccccc34)NC(=O)[C@@H]3C[C@@H](N)CN3C(=O)CNC(=O)[C@H](Cc3ccc(C(=O)O)cc3)NC(=O)[C@H](Cc3c[nH]c4ccccc34)NC2=O)cc1) [SEQ ID NO: 99]
3,494,cyclo([TyrEtNAc]W[Phe(4-COOH)]G[Pro(trans-4-NH2)][1Nal(3S-Me)]D[dNMeA]G[Bip(4'-COOH)][1Nal][Nva][dA]A) (SMILES CCC[C@@H]1NC(=O)[C@H](Cc2cccc3ccccc23)NC(=O)[C@H](Cc2ccc(-c3ccc(C(=O)O)cc3)cc2)NC(=O)CNC(=O)[C@@H](C)N(C)C(=O)[C@H](CC(=O)O)NC(=O)[C@H]([C@@H](C)c2cccc3ccccc23)NC(=O)[C@@H]2C[C@@H](N)CN2C(=O)CNC(=O)[C@H](Cc2ccc(C(=O)O)cc2)NC(=O)[C@H](Cc2c[nH]c3ccccc23)NC(=O)[C@H](Cc2ccc(OCCNC(C)=O)cc2)NC(=O)[C@H](C)NC(=O)[C@@H](C)NC1=O) [SEQ ID NO: 98]
4,294,cyclo([TyrEtNAc]W[Phe(4-COOH)]G[Pro(trans-4-NH2)][1Nal(3S-Me)]D[dNMeA]G[Bip(4'-COOH)][1Nal]L[dA]A) (SMILES CC(=O)NCCOc1ccc(C[C@@H]2NC(=O)[C@H](C)NC(=O)[C@@H](C)NC(=O)[C@H](CC(C)C)NC(=O)[C@H](Cc3cccc4ccccc34)NC(=O)[C@H](Cc3ccc(-c4ccc(C(=O)O)cc4)cc3)NC(=O)CNC(=O)[C@@H](C)N(C)C(=O)[C@H](CC(=O)O)NC(=O)[C@H]([C@@H](C)c3cccc4ccccc34)NC(=O)[C@@H]3C[C@@H](N)CN3C(=O)CNC(=O)[C@H](Cc3ccc(C(=O)O)cc3)NC(=O)[C@H](Cc3c[nH]c4ccccc34)NC2=O)cc1) [SEQ ID NO: 97]
5,120,cyclo([TyrEtNAc]W[Phe(4-COOH)]G[Pro(trans-4-NH2)][1Nal(3S-Me)]D[dNMeA]G[Bip(4'-COOH)][1Nal][Dab][Aib][hTyr]) (SMILES CC(=O)NCCOc1ccc(C[C@@H]2NC(=O)[C@H](CCc3ccc(O)cc3)NC(=O)C(C)(C)NC(=O)[C@H](CCN)NC(=O)[C@H](Cc3cccc4ccccc34)NC(=O)[C@H](Cc3ccc(-c4ccc(C(=O)O)cc4)cc3)NC(=O)CNC(=O)[C@@H](C)N(C)C(=O)[C@H](CC(=O)O)NC(=O)[C@H]([C@@H](C)c3cccc4ccccc34)NC(=O)[C@@H]3C[C@@H](N)CN3C(=O)CNC(=O)[C@H](Cc3ccc(C(=O)O)cc3)NC(=O)[C@H](Cc3c[nH]c4ccccc34)NC2=O)cc1) [SEQ ID NO: 93]
6,63.9,cyclo([TyrEtNAc]W[Phe(4-COOH)]G[Pro(trans-4-NH2)][1Nal(3S-Me)]D[dNMeA]G[Bip(4'-COOH)][1Nal][Dap][Aib][h3Pal(5-CN)]) (SMILES CC(=O)NCCOc1ccc(C[C@@H]2NC(=O)[C@H](CCc3cncc(C#N)c3)NC(=O)C(C)(C)NC(=O)[C@H](CN)NC(=O)[C@H](Cc3cccc4ccccc34)NC(=O)[C@H](Cc3ccc(-c4ccc(C(=O)O)cc4)cc3)NC(=O)CNC(=O)[C@@H](C)N(C)C(=O)[C@H](CC(=O)O)NC(=O)[C@H]([C@@H](C)c3cccc4ccccc34)NC(=O)[C@@H]3C[C@@H](N)CN3C(=O)CNC(=O)[C@H](Cc3ccc(C(=O)O)cc3)NC(=O)[C@H](Cc3c[nH]c4ccccc34)NC2=O)cc1) [SEQ ID NO: 94]
7,422,cyclo([TyrEtNAc]W[Phe(4-COOH)]G[Pro(trans-4-NH2)][1Nal(3S-Me)]D[dNMeA]G[Bip(4'-COOH)][1Nal]L[Aib]G) (SMILES CC(=O)NCCOc1ccc(C[C@@H]2NC(=O)CNC(=O)C(C)(C)NC(=O)[C@H](CC(C)C)NC(=O)[C@H](Cc3cccc4ccccc34)NC(=O)[C@H](Cc3ccc(-c4ccc(C(=O)O)cc4)cc3)NC(=O)CNC(=O)[C@@H](C)N(C)C(=O)[C@H](CC(=O)O)NC(=O)[C@H]([C@@H](C)c3cccc4ccccc34)NC(=O)[C@@H]3C[C@@H](N)CN3C(=O)CNC(=O)[C@H](Cc3ccc(C(=O)O)cc3)NC(=O)[C@H](Cc3c[nH]c4ccccc34)NC2=O)cc1) [SEQ ID NO: 95]

# — patent publication US20230406885A1, “CYCLIC PEPTIDES FOR TRAPPING INTERLEUKIN-1 BETA” (MERCK SHARP & DOHME LLC, priority 2022, published 2023)
